Earlier results on one substance are cited in article PMC5753338.

The target in the series is BAIAP2L1/IRTKS SH3 (Homo sapiens) (UniProt Q9UHR4).
Chain of UniProt Q9UHR4 (Q9UHR4 336-405): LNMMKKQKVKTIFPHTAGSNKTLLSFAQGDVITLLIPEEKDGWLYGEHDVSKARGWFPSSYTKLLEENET

With EspFU PxxP motifs (from UniProt P0DJ88), the Kd was 500 nM.

By Kd is commonly meant the concentration at which binding is half-saturated.
